The values that follow come from patent publication US20190359986A1.

The target of this assay is TNF-α. Nature of the assay: cell-based or functional assay.

The substance Etanercept (Fc fusion) had an EC50, L929 cytotoxicity assay (protection of L929 cells from TNF-α) of 1.1 ng/mL.
The substance “Recombinant soluble TNFR2 (rsTNFR2) (from UniProt P25119 23-258) (receptor)” showed an EC50, L929 cytotoxicity assay (protection of L929 cells from TNF-α) of 698 ng/mL.
For the substance “mouse TNFR2 Δ7 without His-tag, from clone 1145-3 transfected HeLa cells (from UniProt P25119 23-474) (receptor)”, the EC50, L929 cytotoxicity assay; extracellular media from 1145-3 transfected HeLa cells was 2.4 ng/mL.
In the case of “mouse TNFR2 Δ7 with His-tag, from clone 1144-4 transfected HeLa cells (receptor)”, the EC50, L929 cytotoxicity assay; extracellular media from 1144-4 transfected HeLa cells was 2.4 ng/mL.
